In publication PMC6313406 one finds stoichiometry N data, which are given here for one substance.

The test addresses Dimeric Lip3 (isoenzyme 3 of Candida rugosa lipase) (Candida rugosa) (UniProt P32947). As to the kind of experiment: SEC; Sephacryl S200 column (1.6x60 cm), 25 mM Tris/HCl pH 7.5, 0.15 M NaCl, 0.3 mL/min, no detergent; calibrated with the high molecular weight marker kit. A general note: Size exclusion chromatography separates by hydrodynamic size, large species first.

For “Dimeric Lip3 (isoenzyme 3 of Candida rugosa lipase) (from UniProt P32947 16-549)”, the stoichiometry N (commonly the number of molecules, sites or subunits per partner or assembly) amounted to 2.
